{"source": "paper PMC10653809", "substrate": "COc1cc(S(=O)(=O)O)c(C)cc1N=Nc1c(O)ccc2cc(S(=O)(=O)O)ccc12", "experiment": "purified protein", "conditions": "2,000 µM NADH, 20 µM FMN, 20 mM sodium phosphate buffer, 37°C, aerobic"}
{"protein": "AzoR (Escherichia coli K-12) (protein) SKVLVLKSSILAGYSQSNQLSDYFVEQWREKHSADEITVRDLAANPIPVLDGELVGALRPSDAPLTPRQQEALALSDELIAELKAHDVIVIAAPMYNFNISTQLKNYFDLVARAGVTFRYTENGPEGLVTGKKAIVITSRGGIHKDGPTDLVTPYLSTFLGFIGITDVKFVFAEGIAYGPEMAAKAQSDAKAAIDSIVSA", "values": [{"measurement": "Km", "result": 67.7, "unit": "µM"}]}
